B1: GST-MmMEC-17: recombinant murine MEC-17 expressed in E. coli as a GST fusion (protein)
chain: MEFPFDVDALFPERITVLDQHLRPPARRPGTTTPARVDLQQQIMTIVDELGKASAKAQHLPAPITSALRMQSNRHVIYILKDTSARPAGKGAIIGFLKVGYKKLFVLDDREAHNEVEPLCILDFYIHESVQRHGHGRELFQHMLQKERVEPHQLAIDRPSPKLLKFLNKHYNLETTVPQVNNFVIFEGFFAHQHRPPTSSLRATRHSRAAVADPIPAAPARKLPPKRAEGDIKPYSSSDREFLKVAVEPPWPLNRAPRRATPPAHPPPRSSSLGNSPDRGPLRPFVPEQELLRSLRLCPPHPTARLLLATDPGGSPAQRRRTRGTPWGLVAQSCHYSRHGGFNTSFLGTGNQERKQGEQEAEDRSASEDRVLLLDGSGEEPTQTGAPRAQAPPPQSWTVGGDIMNARVIRNLQERRSTRPW
modifications: left off: a dimerising Fc or GST
notes: recombinant murine MEC-17 expressed in E. coli as a GST fusion
B2: GFP-Mec17p: crude GFP-Mec17p-enriched fraction obtained from transgenic Tetrahymena (protein)
chain: MFKNQLLSLSLRIQKLRLCRQGNQLKVLQKSINQLLFKTQSIDQILQYLQQKKKTHQSILENQNQHIHSIGLVSQLTNQKINKQKNQKAMEFNFIINKLVQLDQQGLGVYIPRASRSKVSSQQEQQLGQVLNTMGERSAIAQGLKQVITNYDKVQGTDQRVYIVAEGRTCQGFLKVGQKNLFYRDMMGNIKEIKPLCVLDFYVHESCQRQGYGKLLFEYMIQCEQTSPEKLAYDRPSPKLIAFLKKHYNLVKYIAQNNNFVVFDQYFRSDASSQNKQNQNTRSYSQPYSDYSSQIPTNYPQQQQQQSNSKSYPYKQENNIDLMQHSSSRNNKEFLNAGRAILSKEEIYKKDNLSQQNIENTLNNINNSQYSTKSQQQQQYQKDYQLDKYENNWGADKNIKKPPFPGQDRQLDKIQQKIQQTERELDVVNQQIIKQRQNLSQDPLTQNHRAQNVYNTNQFGTSPWAQTGFNYYSTSSSNYGNHYTYYKK
modifications: left off: large carriers
notes: crude GFP-Mec17p-enriched fraction obtained from transgenic Tetrahymena

Assays:
[1] = target: T1, K40 of α-tubulin (Tetrahymena MEC17-KO axonemes or tubulin) (Tetrahymena thermophila, UniProt P41351); assay: In vitro tubulin acetyltransferase assay: activity of MEC-17 enzyme preparations; assay type: biochemical; conditions: for αTAT activity on MEC17-KO axonemes: with acetyl-CoA, western 6-11 B-1
T1 construct: Total tubulin was purified from the MEC17-KO strain of Tetrahymena; endogenous in cells; host or cells: Tetrahymena MEC17-KO strain (axonemes from cilia, or DEAE-purified tubulin)
Excerpt: (§1) To disrupt the MEC-17 gene in Tetrahymena, we used homologous DNA recombination with a fragment carrying the neo4 marker that replaced the coding region. MEC-17 was overexpressed in Tetrahymena using the MTT1 cadmium-dependent promoter. In C. elegans, MEC-12-K40, MEC-12-Q40, and MEC-12-R40 transgenes were introduced into a single site on chromosome II in the EG4322 strain. Animals homozygous for a MEC-12 transgene and homozygous for the mec-12(e1607) allele were obtained by standard crosses. All touch sensation assays in C. elegans were done using blind scoring. To deplete human MEC-17 (C6Orf134) mRNA in Hela cells, we introduced MEC-17-specific siRNAs (ON-TARGETplus pool, Dharmacon) using Oligofectamine (Invitrogen). To knockdown mec17 expression in zebrafish, MOs designed to target the MEC-17 mRNA (Open Biosystems) were injected into early embryos. ATG-MEC17 MO targets the translation initiation site of mec17 mRNA. SP-MEC17 MO targets the exon3/intron3-4 splice junction, and is expected to result in an aberrant splicing isoform of exon2 to exon 4, producing a frameshift mutation and associated protein truncation. As a negative control, we injected MO with a random sequence (oligo-25N, Gene Tools) or a 5 bp mismatch to the ATG-MEC17 MO. Live embryos were scored for phenotypes at 48 hpf. To produce a recombinant MEC-17 protein, the cDNA sequence of the murine MEC-17 (BF135007, Open Biosystems) was subcloned into pGEX-3× plasmid (GE Healthcare), expressed in BL21 E. coli cells as a GST fusion and purified using GST-Bind kit (Novagen). The in vitro acetylation assays were performed in 50 mM Tris-HCl pH 8.0, […], 0.1 mM EDTA, with purified Tetrahymena MEC-17-KO axonemes or tubulin (purified using DEAE chromatography), recombinant GST-MmMEC-17 enzyme and 10 μM acetyl-CoA. The reaction was detected by western blotting using anti-acetyl-K antibodies.
(§2) To prepare MEC 17-KO axonemes, Tetrahymena cells were grown to the mid-log phase and deciliated by pH shock (Wloga et al., 2008 Eukaryot Cell 7:1362-1372). Cilia were suspended in 1 ml of 1% NP-40 in the axoneme buffer (30 mM HEPES, 20 mM potassium acetate, 5 mM MgSO4, 0.5 mM EDTA, pH 7.6) with Complete protease inhibitors (Roche). After 1-2 min on ice, axonemes were collected by centrifugation (20,000×g, 15 min, 4° C.), suspended in the in vitro acetylation reaction buffer (50 mM Tris HCl, pH 8.0, 10% glycerol, 0.1 mM EDTA, 1 mM DTT) with protease inhibitors and stored at −80° C.
(§3) Total tubulin was purified from the MEC17-KO strain of Tetrahymena using a protocol modified after Yakovich and colleagues (Yakovich et al., 2006 Exp Parasitol 114:289-296). […]

[2] = target: T2, K40 of α-tubulin (Tetrahymena MEC17-KO axonemes or tubulin) (Tetrahymena thermophila, UniProt P41351, K40R); assay: as above; assay type: biochemical; conditions: pan acetyl-K antibodies
T2 construct: Total tubulin was purified from the MEC17-KO strain of Tetrahymena; endogenous in cells; host or cells: Tetrahymena MEC17-KO strain (axonemes from cilia, or DEAE-purified tubulin)
Excerpt: as §1, §2, §3

T1 sequence (P41351 whole entry): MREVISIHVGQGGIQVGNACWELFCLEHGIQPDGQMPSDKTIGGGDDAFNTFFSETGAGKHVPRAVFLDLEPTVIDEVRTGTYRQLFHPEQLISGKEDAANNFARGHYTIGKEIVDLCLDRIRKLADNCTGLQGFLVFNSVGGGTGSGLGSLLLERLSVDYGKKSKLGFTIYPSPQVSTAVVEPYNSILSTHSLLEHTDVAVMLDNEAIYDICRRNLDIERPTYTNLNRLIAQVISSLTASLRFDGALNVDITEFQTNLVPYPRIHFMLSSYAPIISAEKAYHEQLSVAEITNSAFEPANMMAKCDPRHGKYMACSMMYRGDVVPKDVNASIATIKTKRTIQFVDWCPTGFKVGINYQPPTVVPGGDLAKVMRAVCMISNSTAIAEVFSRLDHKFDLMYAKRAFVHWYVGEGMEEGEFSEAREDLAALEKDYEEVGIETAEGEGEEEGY
T1 sequence (P41352 whole entry partner): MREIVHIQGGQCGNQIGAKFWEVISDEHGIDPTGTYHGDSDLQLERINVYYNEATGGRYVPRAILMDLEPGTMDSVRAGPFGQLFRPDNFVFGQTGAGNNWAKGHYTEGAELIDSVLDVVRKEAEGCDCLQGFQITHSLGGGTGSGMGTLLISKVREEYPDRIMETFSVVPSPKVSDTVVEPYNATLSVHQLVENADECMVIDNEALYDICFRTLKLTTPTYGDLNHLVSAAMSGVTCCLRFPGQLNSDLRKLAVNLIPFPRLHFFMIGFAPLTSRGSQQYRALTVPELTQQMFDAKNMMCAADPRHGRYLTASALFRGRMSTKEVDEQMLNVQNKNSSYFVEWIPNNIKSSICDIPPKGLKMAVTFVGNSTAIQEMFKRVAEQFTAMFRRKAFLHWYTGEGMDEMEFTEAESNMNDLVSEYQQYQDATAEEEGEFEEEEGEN
T2 sequence (P41351 whole entry K40R): as the sequence (P41351 whole entry) above, with K40R counted along it
T2 sequence (P41352 whole entry, further chain): as the sequence (P41352 whole entry partner) above

Molecule	K40 acetylation activity on purified tubulin ([1]; highly purified tubulin from MEC17-KO cells)	αTAT activity on MEC17-KO axonemes [1]	acetylation of R40 axonemes (K40R mutant) [2]
B1	robust K40 acetylation activity	robust αTAT activity	failed to acetylate
B2	–	had K40 αTAT activity	–

Reference: patent US20140248635A1, “ALPHA-TUBULIN […]” (University of Georgia Research Foundation, Inc., priority 2010, published 2014)
